Paper PMC5517481 (2017)

How the values were obtained:
[1] = target: T1, His6-SUMO-K-Ras WT (human, UniProt P01116-2 1-166); assay: FACS; GppNHp-loaded
[2] = target: T1, His6-SUMO-K-Ras WT; assay: FACS; GDP-loaded
[3] = target: K-Ras WT (G domain, residues 1-166) (human, UniProt P01116-2 1-166, biotinylated for BLI (site not stated)); assay: BLI; GppNHp-loaded
[4] = target: H-Ras WT (G domain, residues 1-166) (UniProt P01112 1-166, biotinylated for BLI (site not stated)); assay: BLI; GppNHp-loaded
[5] = target: N-Ras WT (G domain, residues 1-166) (UniProt P01111 1-166, biotinylated for BLI (site not stated)); assay: BLI; GppNHp-loaded

B1: R11.1.6 expressed on the surface of yeast (designed binder)
chain: ATVKFTHQGEEKQVDISKIKWVIRWGQYIWFKYDEDGGAKGWGYVSEKDAPKELLQMLKKR
Kd [1]: 50.3 nM
Kd [2]: 2.8 nM

B2: SUMO-R11.1.6 fusion protein (designed binder)
chain: B1 chain
Kd [3]: 41 nM
Kd [4]: 10 nM
Kd [5]: 7 nM
